Experimental data as given in publication PMC6130075, “Engineering of 3-ketosteroid-∆^1-dehydrogenase based site-directed saturation mutagenesis for efficient biotransformation of steroidal substrates” (Microbial Cell Factories, 2018).
Substitutions are numbered along the chain they refer to. Names may count otherwise.

B1: KsdD3 (3-ketosteroid-∆^1-dehydrogenase) (Pimelobacter simplex; W299A) (protein)
chain: MDWAEEYDVLVAGSGAGGMAGTYTAAREGLSVCLVEAGDKFGGTTAYSGGGGAWFPANPVLLRAGTDDTIEDALEYYRAVVGDRTPADLQETYVRGGAGLVAYLEEDDHFSFESYPWPDYFGDAPKARRDGQRHIIPTPLPVPSAPELREVVRGPLDNDRLGTPQPDDLFIGGRALVARFLTALATYPHATLVRETALAELVVEDGVVVGAIVETDGVRRAIRARRGVLLAAGGFEANDELRQKYGVPGVARDTMGPPTNVGAAHQAAIAVGADTDLMGEAWWSPGLTHPDGRSAFALAFTGGIFVDGAGRRFVNESAPYDRLGRAVIDHLTEGGVTPRYWMVYDHKEGSIPPVRATNVSMVDEEQYVAAGLWHTADTLPELAALIGVPADALVATVARFNELVADGYDADFGRGGEAYDRFFSGGEPPLVSIDEGPFHAAAFGISDLGTKGGLRTDTSARVLTADGTPIGGLYAAGNTMAAPSGTTYPGGGNPIGTSMLFSHLAVRHMGTEDAR
notes: full-length, N-terminal His6 tag (pET28a NdeI/EcoRI), E. coli BL21(DE3), Ni-NTA purified
B2: KsdD3 (3-ketosteroid-∆^1-dehydrogenase) (Pimelobacter simplex) (protein)
chain: B1 chain with A299W
notes: as for B1
B3: KsdD3 (3-ketosteroid-∆^1-dehydrogenase) (Pimelobacter simplex; W299G) (protein)
chain: B1 chain with A299G

Tests used:
[1] = biological target: T1, KsdD3 (3-ketosteroid-∆^1-dehydrogenase) (Pimelobacter simplex, UniProt P77815); assay: PMS/DCPIP reduction at […] nm, Michaelis-Menten fit; format: biochemical; settings: 50 mM Tris-HCl pH 7.5, 30 °C, 1.5 mM PMS, 40 µM DCPIP, 2% methanol
T1 construct: gene KR76_27115; full-length, N-terminal His6 tag (pET28a NdeI/EcoRI), E. coli BL21(DE3), Ni-NTA purified
T1 sequence (P77815 entry or part of it): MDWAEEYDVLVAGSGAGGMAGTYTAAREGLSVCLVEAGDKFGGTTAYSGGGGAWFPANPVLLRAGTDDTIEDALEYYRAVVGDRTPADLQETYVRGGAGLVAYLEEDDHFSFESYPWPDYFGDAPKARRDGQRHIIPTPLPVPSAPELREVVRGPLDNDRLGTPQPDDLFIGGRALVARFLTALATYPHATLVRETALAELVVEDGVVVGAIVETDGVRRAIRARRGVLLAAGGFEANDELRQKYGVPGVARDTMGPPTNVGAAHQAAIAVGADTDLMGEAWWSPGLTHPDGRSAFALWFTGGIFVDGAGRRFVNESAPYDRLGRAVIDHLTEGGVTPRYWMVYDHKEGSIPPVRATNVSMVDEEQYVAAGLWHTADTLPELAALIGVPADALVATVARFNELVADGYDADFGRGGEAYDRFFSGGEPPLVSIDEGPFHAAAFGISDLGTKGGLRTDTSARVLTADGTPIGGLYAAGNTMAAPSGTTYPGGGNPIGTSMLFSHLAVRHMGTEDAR

[2] = biological target: T2, KsdD3 (3-ketosteroid-∆^1-dehydrogenase) (Pimelobacter simplex, UniProt P77815, W299A); assay: PMS/DCPIP reduction at […] nm, Michaelis-Menten fit; format: biochemical; settings: 50 mM Tris-HCl pH 7.5, 30 °C, 1.5 mM PMS, 40 µM DCPIP, 2% methanol
T2 construct: gene KR76_27115; full-length, N-terminal His6 tag (pET28a NdeI/EcoRI), E. coli BL21(DE3), Ni-NTA purified

purified protein [3] = substrate: C[C@]12CCC(=O)C=C1CC[C@@H]1[C@@H]2C(=O)C[C@@]2(C)[C@H]1CC[C@]2(O)C(=O)CO; assay: purified protein; settings: 50 mM Tris-HCl pH 7.5, 30 °C, 1.5 mM PMS, 40 µM DCPIP, 2% methanol
purified protein [4] = substrate: C[C@]12CCC(=O)C=C1CC[C@@H]1[C@@H]2CC[C@@]2(C)[C@H]1CC[C@]2(C)O; assay: purified protein; format: biochemical, Pimelobacter simplex; settings: pH 7.5; 30.0 °C
purified protein [5] = substrate: CC(=O)OCC(=O)[C@@]1(O)CC[C@H]2[C@@H]3CCC4=CC(=O)CC[C@]4(C)[C@H]3C(=O)C[C@@]21C; assay: purified protein; format: biochemical, Pimelobacter simplex; settings: 50 mM Tris-HCl pH 7.5, 30 °C, 1.5 mM PMS, 40 µM DCPIP, 2% methanol
purified protein [6] = substrate: CC(=O)[C@@]12O[C@@H]1C[C@H]1[C@@H]3CCC4=CC(=O)CC[C@]4(C)[C@H]3[C@H](O)C[C@@]12C; assay: purified protein; format: biochemical, Pimelobacter simplex; settings: 50 mM Tris-HCl pH 7.5, 30 °C, 1.5 mM PMS, 40 µM DCPIP, 2% methanol
purified protein [7] = substrate: C[C@]12CC[C@H]3[C@@H](CCC4=CC(=O)CC[C@@]43C)[C@@H]1CC[C@@H]2O; assay: purified protein; format: biochemical, Pimelobacter simplex; settings: pH 7.5; 30.0 °C
purified protein [8] = substrate: C[C@]12CCC(=O)C=C1CC[C@@H]1[C@@H]2CC[C@]2(C)C(=O)CC[C@@H]12; assay: purified protein; format: biochemical, Pimelobacter simplex; settings: pH 7.5; 30.0 °C
purified protein [9] = substrate: CC(=O)[C@H]1CC[C@H]2[C@@H]3CCC4=CC(=O)CC[C@]4(C)[C@H]3CC[C@]12C; assay: purified protein; format: biochemical, Pimelobacter simplex; settings: 50 mM Tris-HCl pH 7.5, 30 °C, 1.5 mM PMS, 40 µM DCPIP, 2% methanol
purified protein [10] = substrate: CC(=O)[C@@]1(O)CC[C@H]2[C@@H]3CCC4=CC(=O)CC[C@]4(C)[C@H]3C(=O)C[C@@]21C; assay: purified protein; format: biochemical, Pimelobacter simplex; settings: 50 mM Tris-HCl pH 7.5, 30 °C, 1.5 mM PMS, 40 µM DCPIP, 2% methanol
purified protein [11] = substrate: C[C@]12CCC(=O)C=C1CC[C@@H]1[C@@H]2CC[C@]2(C)C(=O)CC[C@@H]12; assay: purified protein; settings: 50 mM Tris-HCl pH 7.5, 30 °C, 1.5 mM PMS, 40 µM DCPIP, 2% methanol

Molecule | Km (purified protein [3]) [µM] | kcat (purified protein [3]) [s⁻¹] | kcat/Km (purified protein [3]) [M⁻¹ s⁻¹] | Km (purified protein [4]) [µM] | kcat/Km (purified protein [4]) [M⁻¹ s⁻¹] | Km (purified protein [5]) [µM] | kcat (purified protein [5]) [s⁻¹] | kcat/Km (purified protein [5]) [M⁻¹ s⁻¹] | Km (purified protein [6]) [µM] | kcat (purified protein [6]) [s⁻¹] | kcat/Km (purified protein [6]) [M⁻¹ s⁻¹] | Km (purified protein [7]) [µM] | kcat/Km (purified protein [7]) [M⁻¹ s⁻¹] | Km (purified protein [8]) [µM] | kcat/Km (purified protein [8]) [M⁻¹ s⁻¹] | Km (purified protein [9]) [µM] | kcat (purified protein [9]) [s⁻¹] | kcat/Km (purified protein [9]) [M⁻¹ s⁻¹] | Km (purified protein [10]) [µM] | kcat (purified protein [10]) [s⁻¹] | further results
C[C@]12CCC(=O)C=C1CC[C@H]1[C@@H]3CCC(=O)[C@@]3(C)CC[C@@]12O [9α-OH-AD, 9α-hydroxy-4-androstene-3,17-dione] | – | – | – | – | – | – | – | – | – | – | – | – | – | – | – | – | – | – | – | – | Km [1]: 145 ± 4.4 µM; Km [2]: 68.5 ± 7 µM
B1 | 42.85 ± 3.3 | 78 | 1.82e+06 | 44.63 ± 2.8 | 1.66e+06 | 75.93 ± 3.8 | 47.3 ± 1.5 | 620000 | 149.15 ± 4.6 | 33.6 ± 2.1 | 230000 | 33.25 ± 4.2 | 3.7e+06 | 34.89 ± 2.5 | 3.28e+06 | 40.37 ± 3.7 | 87.1 ± 4.2 | 2.16e+06 | 46.85 ± 0.9 | 62.1 ± 6.1 | kcat/Km (purified protein [10]): 1.32e+06 M⁻¹ s⁻¹
B2 | 50.04 ± 2.7 | 59.7 | 1.19e+06 | 55.35 ± 3.1 | 1.03e+06 | 95.08 ± 4.7 | 45.3 ± 3.5 | 480000 | 228.26 ± 7.1 | 19.2 ± 4.5 | 80000 | 42.05 ± 4.3 | 1.89e+06 | 47.43 ± 1.9 | 1.29e+06 | 62.31 ± 4.8 | 53.5 ± 4.1 | 860000 | 57.12 ± 2.8 | 55.2 ± 3.7 | kcat/Km (purified protein [10]): 970000 M⁻¹ s⁻¹
B3 | – | – | – | – | – | – | – | – | – | – | – | – | – | – | – | – | – | – | – | – | Km (purified protein [11]): 37.01 ± 1.8 µM; kcat (purified protein [11]): 101.2 ± 0.9 s⁻¹; kcat/Km (purified protein [11]): 2.74e+06 M⁻¹ s⁻¹
